Measurements: the supplement of paper PMC9112550, “Optimization of the antimicrobial peptide Bac7 by deep mutational scanning” (BMC Biology, 2022)

Test system: Escherichia coli TOP10
Experiment: shrunken log2 fold change of peptide-encoding DNA abundance (4.5 h post-induction vs induction); higher = less antimicrobial activity (less host growth inhibition)
Settings: time post-induction: 4.5 h; library: site-saturation at positions 5, 18, 19, 20
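Also: peptides expressed intracellularly from a pBAD plasmid library in pooled LB shake-flask culture, induced with 0.3% L-arabinose, DNA abundance read by NGS, three biological replicates, DESeq2 with apeglm shrinkage.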

Sequence	shrunken log2 fold change
RRIRVRPPRLPRPRPRPWECPRP	-0.00141
RRIRRRPPRLPRPRPRPGENPRP	0.066
RRIRSRPPRLPRPRPRPNANPRP	0.0564
RRIRKRPPRLPRPRPRPRPQPRP	0.865
RRIRGRPPRLPRPRPRPITYPRP	0.265
RRIRTRPPRLPRPRPRPNMSPRP	-0.562
RRIRVRPPRLPRPRPRPLFSPRP	-0.261
RRIRFRPPRLPRPRPRPKIMPRP	-0.624
RRIRFRPPRLPRPRPRPNTFPRP	-0.559
RRIRERPPRLPRPRPRPNQCPRP	-0.00674
RRIRPRPPRLPRPRPRPIDVPRP	-0.148
RRIRMRPPRLPRPRPRPEGSPRP	3.63
RRIRARPPRLPRPRPRPTFSPRP	0.233
RRIRIRPPRLPRPRPRPKKLPRP	-0.219
RRIRLRPPRLPRPRPRPITTPRP	-0.283
RRIRVRPPRLPRPRPRPHYIPRP	-0.589
RRIRWRPPRLPRPRPRPIQGPRP	0.265
RRIRVRPPRLPRPRPRPWPRPRP	0.183
RRIRDRPPRLPRPRPRPVFEPRP	0.187
RRIRHRPPRLPRPRPRPAAVPRP	0.0752
RRIRYRPPRLPRPRPRPYFLPRP	-1.23
RRIRERPPRLPRPRPRPKHHPRP	-0.217

Sequence	shrunken log2 fold change
RRIRHRPPRLPRPRPRPQHHPRP	-0.87
RRIRKRPPRLPRPRPRPVAGPRP	0.127
RRIRKRPPRLPRPRPRPWEEPRP	-0.000921
RRIRERPPRLPRPRPRPCPHPRP	-0.105
RRIRVRPPRLPRPRPRPLCMPRP	-0.123
RRIRCRPPRLPRPRPRPVACPRP	-0.0888
RRIRNRPPRLPRPRPRPDVTPRP	0.216
RRIRMRPPRLPRPRPRPKIFPRP	0.0739
RRIRVRPPRLPRPRPRPPRSPRP	0.37
RRIRPRPPRLPRPRPRPPHEPRP	-0.0736
RRIRVRPPRLPRPRPRPWIIPRP	-0.652
RRIRNRPPRLPRPRPRPVNFPRP	-0.157
RRIRYRPPRLPRPRPRPTMWPRP	0.0172
RRIRERPPRLPRPRPRPLRHPRP	0.11
RRIRVRPPRLPRPRPRPDMGPRP	-0.0133
RRIRFRPPRLPRPRPRPVFCPRP	-0.0281
RRIRARPPRLPRPRPRPRPPPRP	1.26
RRIRGRPPRLPRPRPRPFVWPRP	0.278
RRIRSRPPRLPRPRPRPCQIPRP	-0.231
RRIRLRPPRLPRPRPRPCHMPRP	-0.0107
RRIRWRPPRLPRPRPRPSFVPRP	-0.284
RRIRDRPPRLPRPRPRPKCYPRP	0.013

Sequence	shrunken log2 fold change
RRIRGRPPRLPRPRPRPMQAPRP	0.256
RRIRFRPPRLPRPRPRPLVTPRP	-0.318
RRIRGRPPRLPRPRPRPLPFPRP	-0.0338
RRIRWRPPRLPRPRPRPDHCPRP	-0.00992
RRIRDRPPRLPRPRPRPSGKPRP	-0.24
RRIRQRPPRLPRPRPRPKTVPRP	-0.093
RRIRTRPPRLPRPRPRPFIYPRP	-0.657
RRIRERPPRLPRPRPRPWALPRP	-0.144
RRIRKRPPRLPRPRPRPIWHPRP	0.248
RRIRWRPPRLPRPRPRPRNYPRP	-0.169
RRIRGRPPRLPRPRPRPLQDPRP	0.98
RRIRCRPPRLPRPRPRPHPGPRP	-0.156
RRIRPRPPRLPRPRPRPKGDPRP	0.022
RRIRMRPPRLPRPRPRPCHYPRP	-0.112
RRIRWRPPRLPRPRPRPFRYPRP	-0.501
RRIRDRPPRLPRPRPRPTMMPRP	0.338
RRIRNRPPRLPRPRPRPVYCPRP	-0.688
RRIRNRPPRLPRPRPRPDSDPRP	-0.00992
RRIRTRPPRLPRPRPRPRFQPRP	0.177
RRIRRRPPRLPRPRPRPAKAPRP	0.12
RRIRKRPPRLPRPRPRPNHWPRP	0.0915
RRIRNRPPRLPRPRPRPDWNPRP	-0.212

Sequence	shrunken log2 fold change
RRIRQRPPRLPRPRPRPKQVPRP	0.0304
RRIRHRPPRLPRPRPRPGLTPRP	0.129
RRIRKRPPRLPRPRPRPYMQPRP	-0.0263
RRIRMRPPRLPRPRPRPKEGPRP	-0.01
RRIRSRPPRLPRPRPRPIPVPRP	-0.208
RRIRWRPPRLPRPRPRPDVPPRP	-0.177
RRIRRRPPRLPRPRPRPLKFPRP	-0.149
RRIRRRPPRLPRPRPRPMIRPRP	0.272
RRIRRRPPRLPRPRPRPCTRPRP	0.0341
RRIRTRPPRLPRPRPRPHNNPRP	-0.894
RRIRMRPPRLPRPRPRPHHLPRP	0.0151
RRIRLRPPRLPRPRPRPDDNPRP	-0.138
RRIRVRPPRLPRPRPRPDIVPRP	-0.229
RRIRGRPPRLPRPRPRPPMPPRP	0.659
RRIRKRPPRLPRPRPRPGAKPRP	1.16
RRIRWRPPRLPRPRPRPMQSPRP	0.185
RRIRRRPPRLPRPRPRPEQRPRP	0.272
RRIRSRPPRLPRPRPRPETMPRP	0.205
RRIRQRPPRLPRPRPRPFMSPRP	-0.0241
RRIRTRPPRLPRPRPRPPNLPRP	0.0303
RRIRERPPRLPRPRPRPTQEPRP	0.0237
RRIRDRPPRLPRPRPRPRVYPRP	0.102

Sequence	shrunken log2 fold change
RRIRKRPPRLPRPRPRPHVGPRP	0.176
RRIRRRPPRLPRPRPRPAEQPRP	0.275
RRIRRRPPRLPRPRPRPEFTPRP	0.0132
RRIRGRPPRLPRPRPRPHPIPRP	-0.0927
RRIRPRPPRLPRPRPRPWYAPRP	-0.107
RRIRCRPPRLPRPRPRPDHGPRP	-0.234
RRIRDRPPRLPRPRPRPFIMPRP	-0.147
RRIRMRPPRLPRPRPRPGCDPRP	1.85
RRIRDRPPRLPRPRPRPNVPPRP	0.0123
RRIRPRPPRLPRPRPRPKVAPRP	0.02
RRIRGRPPRLPRPRPRPQWFPRP	0.282
RRIRIRPPRLPRPRPRPCWLPRP	-0.196
RRIRPRPPRLPRPRPRPVIKPRP	-0.215
RRIRIRPPRLPRPRPRPDSNPRP	-0.168
RRIRYRPPRLPRPRPRPTYWPRP	-0.318
RRIRDRPPRLPRPRPRPNLQPRP	-0.71
RRIRHRPPRLPRPRPRPGAGPRP	0.395
RRIRGRPPRLPRPRPRPRNCPRP	0.0949
RRIRGRPPRLPRPRPRPQCVPRP	-0.0809
RRIRIRPPRLPRPRPRPTIPPRP	-0.463
RRIRFRPPRLPRPRPRPPFIPRP	-0.236
